Laboratory results from patent US10251952B2, “Humanized anti-tau(pS422) antibody brain shuttles and use thereof” (Hoffmann-La Roche Inc., priority 2014, dated 2019).
Like-named read-outs stand apart in the source and are kept apart here. Ends that are not written are not given here.

Key:
[1] = biological target: anti-HeliCar motif amino acid sequence antibody; assay: binding of PYY peptides to anti-HeliCar motif antibody
[2] = biological target: T1, NPY2R (Homo sapiens, UniProt P49146); assay: effect on the Y2Receptor family
T1 sequence (P49146 1-381): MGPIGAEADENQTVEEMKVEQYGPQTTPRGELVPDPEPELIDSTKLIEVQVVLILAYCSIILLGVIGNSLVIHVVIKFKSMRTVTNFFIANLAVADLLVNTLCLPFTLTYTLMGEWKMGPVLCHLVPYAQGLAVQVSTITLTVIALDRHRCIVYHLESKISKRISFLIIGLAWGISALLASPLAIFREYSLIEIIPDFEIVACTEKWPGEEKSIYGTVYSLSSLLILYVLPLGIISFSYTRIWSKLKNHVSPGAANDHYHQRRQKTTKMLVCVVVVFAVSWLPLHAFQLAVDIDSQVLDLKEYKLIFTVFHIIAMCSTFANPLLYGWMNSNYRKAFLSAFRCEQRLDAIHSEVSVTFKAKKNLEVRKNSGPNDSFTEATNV

[3] = biological target: NPY4R (Homo sapiens, UniProt P50391); assay: effect on the Y2Receptor family
[4] = biological target: T2, NPY5R (Homo sapiens, UniProt Q15761); assay: effect on the Y2Receptor family
T2 sequence (Q15761 1-445): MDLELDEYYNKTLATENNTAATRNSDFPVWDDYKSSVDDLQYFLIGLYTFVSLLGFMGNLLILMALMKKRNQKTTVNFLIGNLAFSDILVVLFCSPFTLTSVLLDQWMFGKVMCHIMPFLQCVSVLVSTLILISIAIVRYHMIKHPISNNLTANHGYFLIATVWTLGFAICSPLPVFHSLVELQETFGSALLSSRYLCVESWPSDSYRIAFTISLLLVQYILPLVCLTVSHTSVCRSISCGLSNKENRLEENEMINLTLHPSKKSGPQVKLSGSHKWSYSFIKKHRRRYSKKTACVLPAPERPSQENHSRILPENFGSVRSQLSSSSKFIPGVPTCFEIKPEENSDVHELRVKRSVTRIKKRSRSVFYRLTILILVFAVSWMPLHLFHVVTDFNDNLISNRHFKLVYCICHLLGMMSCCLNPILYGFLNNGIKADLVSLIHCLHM

[5] = biological target: T3, human tau(pS422) (Homo sapiens, UniProt P10636, S739X); assay: BIAcore kinetic screening and kinetic rates of humanized VH/VL combinations; type: binding; settings: for MR: molar ratio; for BIAcore: summary grading 1 to 4, key not given
Description: In the following Table characteristics of the different humanized variants of the rabbit light chain variable domain in combination with the humanized heavy chain variable domains VH14 and VH20, respectively, are shown. Binding partner was human tau(pS422).
Kinetic screening was performed according to Schraeml et al. (Schraeml, M. and M. Biehl, Methods Mol. Biol. 901 (2012) 171-181) on a BIAcore 4000 instrument, mounted with a BIAcore CM5 sensor. The BIAcore 4000 instrument was under the control of the software version V1.1. A BIAcore CM5 series S chip was mounted into the instrument and was hydrodynamically addressed and preconditioned according to the manufacturer's instructions. The instrument buffer was HBS-EP buffer (10 mM HEPES (pH 7.4), 150 mM NaCl, 1 mM EDTA, 0.05% (w/v) P20). An antibody capture system was prepared on the sensor surface. A polyclonal goat anti-human antibody with human IgG-Fc specificity (Jackson Lab.) was immobilized at 30 μg/ml in 10 mM sodium acetate buffer (pH 5) to spots 1, 2, 4 and 5 in the instrument's flow cells 1, 2, 3 and 4 at 10,000 RU using NHS/EDC chemistry. In each flow cell the antibodies were captured on spot 1 and spot 5. Spot 2 and spot 4 were used as reference spots. The sensor was deactivated with a 1 M ethanolamine solution. Humanized antibody derivatives were applied at concentrations between 44 nM and 70 nM in instrument buffer supplemented with 1 mg/ml CMD (carboxymethyldextrane). The antibodies were injected at a flow rate of 30 μl/min for 2 minutes. The capture level (CL) of the surface-presented antibodies was measured in rel. response units (RU). The analytes in solution, phosphorylated human tau protein, non-phosphorylated human tau protein and the phosphorylated human tau mutant protein T422S were injected at 300 nM for 3 minutes at a flow rate of 30 μl/minute. The dissociation was monitored for 5 minutes. The capture system was regenerated by a 1 minute injection of 10 mM glycine buffer, pH 1.7 at 30 μL/minute over all flow cells. Two report points, the recorded signal shortly before the end of the analyte injection, denoted as binding late (BL) and the recorded signal shortly before the end of the dissociation time, stability late (SL), were used to characterize the kinetic screening performance. Furthermore, the dissociation rate constant kd (1/s) was calculated according to a Langmuir model and the antibody/antigen complex half-life was calculated in minutes according to the formula ln(2)/(60*kd). The molar ratio (MR) was calculated according to the formula MR=(Binding Late (RU))/(Capture level (RU))*(MW(antibody)/(MW(antigen)). In case the sensor was configured with a suitable amount of antibody ligand capture level, each antibody should be able to functionally bind at least to one analyte in solution, which is represented by a molar ratio of MR=1.0. Then, the molar ratio is also an indicator for the valence mode of analyte binding. The maximum valence can be MR=2 for an antibody binding two analytes, one with each Fab valence.
In another embodiment, kinetic rates were determined at 25° C. and 37° C. using the same experimental setup, but using multiple concentration series of each analyte in solution at 0 nM (buffer), 1.2 nM, 3.7 nM, 11.1 nM, 33.3 nM, 100 nM and 300 nM. From the concentration-dependent binding behavior the kinetic data was calculated using the BIAcore evaluation software according to the manufacturer's instructions and a Langmuir 1.1 model with RMAX global.

[6] = biological target: T4, S422A tau mutant S422A SEQ ID NO: 01 (Homo sapiens, UniProt P10636, S739A); assay: ELISA binding specificity of VH/VL combinations
T4 construct: (A)=full length human tau S422A mutant
Description: (§1) In the following Table the binding specificity for different VH/VL combinations are shown (EC50 values in [ng/ml]).
(§2) Non-biotinylated peptide/protein/aggregate was added to non-coated Maxisorb plates, biotinylated peptide/protein/aggregate in PBS was added to streptavidin-coated Maxisorb plates, and plates were incubated over-night. The supernatant was discarded and the wells washed three times with 90 μl wash buffer (lx PBS/0.1% Tween 20). Remaining reactive spots were blocked with blocking buffer (lx PBS/2% BSA (Bovine Serum Albumin Fraction V, fatty acid free, Roche, Cat. No.: 10735078001)/0.05% Tween 20) by incubating for one hour. The supernatant was discarded and the wells washed three times with 90 μl wash buffer. Samples and control antibody were prepared in 12 dilutions (1:2) in ELISA buffer (lx PBS/0.5% BSA (Bovine Serum Albumin Fraction V, fatty acid free, Roche, Cat. No.: 10735078001)/0.05% Tween 20) with a start concentration of 500 ng/ml. The incubation time was 60 minutes at room temperature on a shaker. The supernatant was discarded and the wells washed three times with 90 μl wash buffer. Solutions of secondary antibody were prepared in ELISA buffer. A total of 25 μl antibody-mix was transferred to all wells of the assay plate and the plate was thereafter incubated on shaker for 60 minutes at room temperature. The supernatant was discarded and the wells were washed three times with 90 μl wash buffer. 25 μl of ABTS solution was added to all wells. The absorbance was read at 405 nm-492 nm.

[7] = biological target: full length tau(pS422) SEQ ID NO: 02 (Homo sapiens, UniProt P10636, S739X); assay: ELISA binding specificity of VH/VL combinations
Description: as §1, §2

[8] = biological target: T5, tau peptide residues 416 to 430 of SEQ ID NO: 01 (Homo sapiens, UniProt P10636); assay: ELISA binding specificity of VH/VL combinations
T5 construct: 416 to 430
Description: as §1, §2

[9] = biological target: tau(pS422) aggregates (Homo sapiens, UniProt P10636, S739X); assay: ELISA binding specificity of VH/VL combinations
Description: as §1, §2

[10] = biological target: tau(pS422) fragment SEQ ID NO: 03 (Homo sapiens, UniProt P10636, S739X); assay: ELISA binding specificity of VH/VL combinations
Description: as §1, §2

[11] = biological target: human tau phosphorylated at S422 (Homo sapiens, UniProt P10636, S739X); assay: Western Blot selectivity of humanized VH/VL combinations; type: binding; settings: for WB: summary grading 1 to 4, key not given
Source text: FIG. 5 is a Western Blot showing the selectivity of selected humanized VH/VL combinations; (1)=VH00/VL00, (2)=VH32/VL21, (3)=VH20/VL22, (4)=VH32/VL22, (5)=VH33/VL22.
The sensitivity of selected humanized VH/VL combinations to the human tau mutant S422A can be seen from the Western Blots shown in FIG. 5. All humanized variants selectively bind to human tau phosphorylated at S422.

[12] = biological target: T3, human tau(pS422); assay: IHC grading in summary of biological properties; settings: key not given
Source text: The following table summarizes the biological properties of selected humanized VH/VL combinations.

[13] = 25 °C, VL17 or VL19 with VH variants

T4 sequence (P10636 1-441 isoform P10636-8 S422A): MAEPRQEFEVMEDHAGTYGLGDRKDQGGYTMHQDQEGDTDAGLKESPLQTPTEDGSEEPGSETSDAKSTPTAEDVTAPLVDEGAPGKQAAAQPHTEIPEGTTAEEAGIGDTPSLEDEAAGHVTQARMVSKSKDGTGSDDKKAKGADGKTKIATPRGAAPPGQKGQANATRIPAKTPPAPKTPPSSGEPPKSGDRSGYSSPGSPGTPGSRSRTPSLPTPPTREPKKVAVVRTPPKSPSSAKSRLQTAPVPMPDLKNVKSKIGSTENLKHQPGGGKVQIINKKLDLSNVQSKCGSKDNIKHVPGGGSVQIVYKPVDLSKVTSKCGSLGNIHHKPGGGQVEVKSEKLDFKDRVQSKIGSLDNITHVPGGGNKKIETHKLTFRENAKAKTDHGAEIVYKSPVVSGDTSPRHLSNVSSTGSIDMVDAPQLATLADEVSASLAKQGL
Sequence of NPY4R (P50391 whole entry, species assumed): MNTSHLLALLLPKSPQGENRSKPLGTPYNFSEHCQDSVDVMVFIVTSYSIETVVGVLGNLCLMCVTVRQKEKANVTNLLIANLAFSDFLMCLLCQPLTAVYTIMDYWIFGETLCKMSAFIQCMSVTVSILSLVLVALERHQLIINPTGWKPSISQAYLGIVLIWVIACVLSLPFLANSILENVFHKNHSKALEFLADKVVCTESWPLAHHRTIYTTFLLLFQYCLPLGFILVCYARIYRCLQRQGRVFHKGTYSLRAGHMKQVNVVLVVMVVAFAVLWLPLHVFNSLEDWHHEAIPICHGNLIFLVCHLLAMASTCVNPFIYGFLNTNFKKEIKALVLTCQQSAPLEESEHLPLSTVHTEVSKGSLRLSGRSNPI

Row | Molecule | t/2diss 25° C. ([5]; 25 °C) | Kd ([5]; 25 °C, read-out: KD 25° C.) | t/2diss 37° C. ([5]; 37 °C) | Kd ([5]; 37 °C, read-out: KD 37° C.) | MR ([5]; 25 °C) | MR ([5]; 37 °C) | EC50 S422A tau mutant S422A SEQ ID NO: 01 [6] | EC50 full length tau(pS422) SEQ ID NO: 02 [7] | EC50 tau peptide residues 416 to 430 of SEQ ID NO: 01 [8] | EC50 tau(pS422) aggregates [9] | EC50 tau(pS422) fragment SEQ ID NO: 03 [10] | BIAcore [5] | WB [11] | IHC [12] | further results
1 | IKPEAPGEDASPEAHLANEVARLHYLNLVTRQRY-NH2 [PYY_HeliCar] |  |  |  |  |  |  |  |  |  |  |  |  |  |  | Kd [1]: 12 nM; NPY2R [2]: 6.38 nM; NPY4R [3]: inactive; NPY5R [4]: inactive
2 | VH00/VL00: rabbit antibody reference (parent of humanized variants, from mAb 086); VH SEQ ID NO: 11, VL SEQ ID NO: 07 (antibody, listed as Oryctolagus cuniculus, V domains shown) VH: QSVEESGGRLVTPGTPLTLTCTVSGFSLSSNAINWVRQAPGKGLEWIGYIAVSGNTYYASWAKGRFTISKASTTVDLKMTSPTAEDTGTYFCGKSNIWGPGTLVTVSL VL: AQVLTQTTSPVSAAVGSTVTISCQSSQSVRTNKLAWFQQKPGQPPKRLIYSASTLDFGVPSRFSASGSGTQFTLTISDVQCDDAATYYCLGYFDCSIADCVAFGGGTEVVVK | 54 min | 8 nM | 24 min | 12 nM | 0.6 | 0.8 | 0.0479 µg/mL | 5.2 ng/ml | >1 µg/mL | 18.1 ng/ml | 6.3 ng/ml |  |  |  | selectivity and cross-reactivity in Western Blot ([11]; FIG. 5): low level x-reactivity to non-S422 phosphoepitopes
3 | VL17 with VH15: anti-human tau(pS422) antibody; VH SEQ ID NO: 51, VL SEQ ID NO: 37 (antibody, V domains shown, humanized sequence) VH: QSVVESGGGLVQPGGSLRLSCAASGFSLSSNAINWVRQAPGKGLEWVGYIAVSGNTYYASWAKGRFTISRDNSKNTLYLQMNSLRAEDTAVYYCGKSNIWGPGTLVTVSS VL: DIQMTQSPSSLSASVGDRVTITCRSSQSVRTNKLAWFQQKPGQPPKRLIYSASTLDFGVPSRFSGSGSGTEFTLTISSLQPEDFATYYCLGYFDCSIADCVAFGGGTKVEIK |  |  |  |  |  |  |  |  |  |  |  |  |  |  | kd [5, 13]: 0.00326 s⁻¹; t/2 diss [5, 13]: 4 min
4 | VH32/VL21: humanized anti-human tau(pS422) antibody; VH SEQ ID NO: 19, VL SEQ ID NO: 16 (antibody, V domains shown, humanized sequence) VH: EVQVLESGGGLVQPGGSLRLSCAVSGFSLSSNAINWVRQAPGKGLEWVGYIAVSGNTYYASWAKGRFTISRDNSKNTVYLQMNSLRAEDTAVYYCGKSNIWGQGTLVTVSS VL: AQVMTQSPSSLSASVGDRVTITCRSSQSVRTNKLAWFQQKPGQPPKRLIYSASTLDFGVPSRFSGSGSGTEFTLTISSLQPEDFATYYCLGYFDSSADIVAFGGGTKVEIK | 26 min | 18 nM | 9 min | 32 nM | 0.5 | 0.6 | 0.0215 µg/mL | 2.9 ng/ml | 0.634 µg/mL | 9.4 ng/ml | 4.4 ng/ml | 2 | 2 | 3 | 
5 | VH32/VL22: humanized anti-human tau(pS422) antibody; VH SEQ ID NO: 19, VL SEQ ID NO: 17 (antibody, V domains shown, humanized sequence) VH: EVQVLESGGGLVQPGGSLRLSCAVSGFSLSSNAINWVRQAPGKGLEWVGYIAVSGNTYYASWAKGRFTISRDNSKNTVYLQMNSLRAEDTAVYYCGKSNIWGQGTLVTVSS VL: AQVMTQSPSSLSASVGDRVTITCRSSQSVRTNRLAWFQQKPGQPPKRLIYSASTLDYGVPSRFSGSGSGTEFTLTISSLQPEDFATYYCLGYFDSSADIVAFGGGTKVEIK | 29 min | 14 nM | 8 min | 31 nM | 0.5 | 0.6 | 0.0174 µg/mL | 3.5 ng/ml | 0.048 µg/mL | 8.3 ng/ml | 5.6 ng/ml | 1 | 1 | 1 | 
